Data reported in patent publication US7829303 (ELAN PHARMACEUTICALS, dated 2010).
Where no end group is shown, it is not given here. [ ]: non-standard residue; d: D form. Sta = CC(C)C[C@H](N)[C@@H](O)CC(=O)O

Target: T1, recombinant human beta secretase (BACE), E. coli construct pQE70-BACE (human, UniProt P56817 57-453)
T1 construct: also called Asp2; memapsin 2
Assay: affinity chromatography, peptide immobilised on resin
Protocol: Prior to purification, the pH of the refolded protein was lowered from about 10 to 8.5 with HCl. The solution was loaded onto three 50 ml Q-Sepharose columns (Pharmacia Biotech XK 50). The columns were pre-equilibrated in 0.4 M Urea, 10 mM AMPSO, pH 8.5. After refolded protein was loaded onto the columns, they were washed with 500 ml of 0.4 M Urea, 10 mM TRIS, pH 8.2. The columns were eluted with 180-245 ml of 0.75 M NaCl in 0.4 M Urea 10 mM TRIS buffer, pH 8.2. The eluates were then dialyzed versus 20 mM HEPES, pH 8.0. The samples were then removed from dialysis and dropped into 1 M NaMES, pH 5.7 (0.1 M final concentration). After centrifugation (20 K×g) the supernatant was dropped into 1 M Na-acetate, 1 M NaMES, pH 5.0 (0.2 M Na-acetate, 0.28 M Na-MES was the final concentration). […] This solution was then applied to a 15 ml affinity column equilibrated at the same pH. The column was washed with 6 column volumes of 20 mM sodium acetate buffer pH 4.5, 150 mM NaCl. BACE was eluted at pH 8.5 using about 50 ml of 0.1 M borate buffer. This final step removed any residual contaminants. From 40 liter of *E. coli* cell culture, the amount of protein obtained was 137 mg of highly purified pQE70-BACE construct. Purified pQE70-BACE was dialyzed into 100 mM NaBorate pH 8.5.

T1 sequence (P56817 other isoform, or with tags, fused parts or gaps limits assumed): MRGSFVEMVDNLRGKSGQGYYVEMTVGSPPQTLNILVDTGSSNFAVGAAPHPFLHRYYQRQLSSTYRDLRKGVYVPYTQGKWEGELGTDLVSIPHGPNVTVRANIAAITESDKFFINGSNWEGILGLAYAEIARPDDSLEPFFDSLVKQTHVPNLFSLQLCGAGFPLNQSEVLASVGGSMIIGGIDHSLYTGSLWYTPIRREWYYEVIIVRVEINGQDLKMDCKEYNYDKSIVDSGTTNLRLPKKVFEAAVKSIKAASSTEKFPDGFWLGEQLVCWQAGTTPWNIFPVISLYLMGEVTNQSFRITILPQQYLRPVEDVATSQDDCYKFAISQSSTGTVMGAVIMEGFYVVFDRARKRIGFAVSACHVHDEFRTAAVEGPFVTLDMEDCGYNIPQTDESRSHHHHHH

SEVN[Sta]VAEFRGGC [synthetic peptide Ser-Glu-Val-Asn-Sta-Val-Ala-Glu-Phe-Arg-Gly-Gly-Cys (where Sta=statine)]: binds.
